According to PMC7884259 (Journal of medicinal chemistry, 2020):
Where no end group is shown, it is not given here.

T1: ATAD2B bromodomain (residues 953–1085) (human, UniProt Q9ULI0 953-1085)
T1 sequence (looked up): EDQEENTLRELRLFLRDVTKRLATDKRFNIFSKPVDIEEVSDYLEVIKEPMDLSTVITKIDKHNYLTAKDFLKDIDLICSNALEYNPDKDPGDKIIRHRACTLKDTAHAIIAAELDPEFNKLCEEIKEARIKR

T2: ATAD2B bromodomain N1038A (human, UniProt Q9ULI0 953-1085, N1038A)
T2 sequence (looked up): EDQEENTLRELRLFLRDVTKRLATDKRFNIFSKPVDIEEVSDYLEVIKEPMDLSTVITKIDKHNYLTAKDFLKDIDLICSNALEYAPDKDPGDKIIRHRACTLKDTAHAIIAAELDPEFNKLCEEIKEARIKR


Tests used:
[1] = molecular target: T1, ATAD2B bromodomain (residues 953–1085); experiment: ITC
[2] = molecular target: T2, ATAD2B bromodomain N1038A; experiment: ITC

Kd [1] [µM]	Kd [2] [µM]	Binder
48	–	SGRGK(Ac)GGKGL-NH2 [H4K5ac (res 1–10)]
42.5	–	SGRGK(Ac)QGGKARA-NH2 [H2AK5ac (res 1–12)]
28.1	623	SGRGK(Ac)GGK(Ac)GL-NH2 [H4K5acK8ac (res 1–10)]
1160	–	SGRGKGGK(Ac)GL-NH2 [H4K8ac (res 1–10)]
